# Values joined by “and” are separate entries in the source; they are usually repeats but may differ in a detail not shown here. Equal entries are not always repeated.
# T1: Mesyl-dFPR-ACC
# T1 sequence (peptide, N-terminal mesyl; D-Phe at position 1 (dF); C-terminal ACC fluorophore): FPR
# Experiments:
# [1] = target: T1, Mesyl-dFPR-ACC
# [2] = target: Factor X (Homo sapiens (Human)) (UniProt P00742)
"Activity (µmol/sec/µmol), specific activity for mesyl-dFPR-ACC (µmol/sec/µmol) [1]","kcat/KM (M^-1s^-1), TF-dependent assay [2]","kcat/KM, TF-independent assay [2]","kcat/KM, TF-dependent assay [2]",Molecule
2.7,6.25e+07 M⁻¹ s⁻¹,4.8 M⁻¹ s⁻¹,,T128N/P129A/S222A-FVIIa (enzyme)
0.67,1.25e+08 M⁻¹ s⁻¹,244 M⁻¹ s⁻¹,,Gla swap FIX/T239I/Q286R/M298Q-FVIIa (enzyme)
1.95,3.56e+07 M⁻¹ s⁻¹,3.8 M⁻¹ s⁻¹,,S52A/S60A-FVIIa (enzyme)
1.26,1.41e+08 M⁻¹ s⁻¹,512 M⁻¹ s⁻¹,,{Gla swap FIX/M19K}/Q286R/M298Q-FVIIa (enzyme)
1.24,8.06e+07 M⁻¹ s⁻¹,10.3 M⁻¹ s⁻¹,,Q286R-FVIIa (enzyme)
1.13,2.53e+08 M⁻¹ s⁻¹ and 1.79e+08 M⁻¹ s⁻¹,,,Gla swap FIX/T239V/Q286R/M298Q-FVIIa (enzyme)
2.34,3.02e+07 M⁻¹ s⁻¹,3 M⁻¹ s⁻¹,,A122N/G124S/A175S/Q366V-FVIIa (enzyme)
0.49,8.53e+07 M⁻¹ s⁻¹,,,Gla swap FIX/Q286R/S222A/H257S-FVIIa (enzyme)
0.78,2.11e+08 M⁻¹ s⁻¹ and 1.99e+08 M⁻¹ s⁻¹,,,Gla swap FIX/T128N/P129A/Q286R/M298Q-FVIIa (enzyme)
3.4,3.38e+07 M⁻¹ s⁻¹,3.4 M⁻¹ s⁻¹,,T128N/P129A/A175S/Q366V-FVIIa (enzyme)
2.68,2.08e+07 M⁻¹ s⁻¹,,,A122N/G124S/A175S/S222A-FVIIa (enzyme)
5.02,1.77e+08 M⁻¹ s⁻¹,63.3 M⁻¹ s⁻¹,,S52A/S60A/Q286R/M298Q/H373F-FVIIa (enzyme)
0.89,,,4.13e+07 M⁻¹ s⁻¹,Gla swap FIX/A122N/G124S/A175S/S222A/Q286R-FVIIa (enzyme)
1.11,1.98e+08 M⁻¹ s⁻¹,729 M⁻¹ s⁻¹,,{Gla swap FIX/Q44S}/Q286R/M298Q-FVIIa (enzyme)
2.24,3.87e+07 M⁻¹ s⁻¹,3.4 M⁻¹ s⁻¹,,A122N/G124S-FVIIa (enzyme) ANAFLEELRPGSLERECKEEQCSFEEAREIFKDAERTKLFWISYSDGDQCASSPCQNGGSCKDQLQSYICFCLPAFEGRNCETHKDDQLICVNENGGCEQYCSDHTGTKRSCRCHEGYSLLNDSVSCTPTVEYPCGKIPILEKRNASKPQGRIVGGKVCPKGECPWQVLLLVNGAQLCGGTLINTIWVVSAAHCFDKIKNWRNLIAVLGEHDLSEHDGDEQSRRVAQVIIPSTYVPGTTNHDIALLRLHQPVVLTDHVVPLCLPERTFSERTLAFVRFSLVSGWGQLLDRGATALELMVLNVPRLMTQDCLQQSRKVGDSPNITEYMFCAGYSDGSKDSCKGDSGGPHATHYRGTWYLTGIVSWGQGCATVGHFGVYTRVSQYIEWLQKLMRSEPRPGVLLRAPFP
1.17,5.58e+07 M⁻¹ s⁻¹,,,H373F-FVIIa (enzyme) ANAFLEELRPGSLERECKEEQCSFEEAREIFKDAERTKLFWISYSDGDQCASSPCQNGGSCKDQLQSYICFCLPAFEGRNCETHKDDQLICVNENGGCEQYCSDHTGTKRSCRCHEGYSLLADGVSCTPTVEYPCGKIPILEKRNASKPQGRIVGGKVCPKGECPWQVLLLVNGAQLCGGTLINTIWVVSAAHCFDKIKNWRNLIAVLGEHDLSEHDGDEQSRRVAQVIIPSTYVPGTTNHDIALLRLHQPVVLTDHVVPLCLPERTFSERTLAFVRFSLVSGWGQLLDRGATALELMVLNVPRLMTQDCLQQSRKVGDSPNITEYMFCAGYSDGSKDSCKGDSGGPHATHYRGTWYLTGIVSWGQGCATVGFFGVYTRVSQYIEWLQKLMRSEPRPGVLLRAPFP

# Continued, molecule first:
Molecule,"Activity (µmol/sec/µmol), specific activity for mesyl-dFPR-ACC (µmol/sec/µmol) [1]","kcat/KM (M^-1s^-1), TF-dependent assay [2]","kcat/KM, TF-independent assay [2]","kcat/KM, TF-dependent assay [2]"
Gla swapFIX/Q366V-FVIIa (enzyme),2.82,9.11e+07 M⁻¹ s⁻¹,90 M⁻¹ s⁻¹,
S52A/S60A/S222A-FVIIa (enzyme),1.22,3.91e+07 M⁻¹ s⁻¹,10.2 M⁻¹ s⁻¹ and 19.6 M⁻¹ s⁻¹,
A122N/G124S/A175S/Q286R/M298Q-FVIIa (enzyme),3.03,,,7.43e+07 M⁻¹ s⁻¹
S52A/S60A/Q286R/M298Q-FVIIa (enzyme),1.08,1.25e+08 M⁻¹ s⁻¹,217 M⁻¹ s⁻¹,
A122N/G124S/A175S/Q286R/M298Q/H373F-FVIIa (enzyme),2.71,,,8.39e+07 M⁻¹ s⁻¹
T128N/P129A/A175S/S222A-FVIIa (enzyme),3.19,1.72e+07 M⁻¹ s⁻¹,1.9 M⁻¹ s⁻¹,
Gla swap FIX/S222A/Q286R/M298Q/H373F-FVIIa (enzyme),1.92,2.84e+08 M⁻¹ s⁻¹,192 M⁻¹ s⁻¹,
S52A/S60A/Q286R-FVIIa (enzyme),0.44,4.1e+07 M⁻¹ s⁻¹,,
Gla swap FIX/S222A/Q286R/H373F-FVIIa (enzyme),1.37,1.22e+08 M⁻¹ s⁻¹,81.2 M⁻¹ s⁻¹,
{Gla swap FIX/E40L}/Q286R/M298Q-FVIIa (enzyme),1.16,2.08e+08 M⁻¹ s⁻¹,814 M⁻¹ s⁻¹,
T128N/P129A/A175S/Q286R/M298Q/H373F-FVIIa (enzyme),2.78,,,5.72e+07 M⁻¹ s⁻¹
Gla swap FIX/S52A/S60A/S222A/Q286R-FVIIa (enzyme),0.44,7.24e+07 M⁻¹ s⁻¹,2.9 M⁻¹ s⁻¹,
T128N/P129A/A175S/S222A/H257A/Q286R/M298Q-FVIIa (enzyme),21.8,,,6.89e+07 M⁻¹ s⁻¹
S52A/S60A/V158D/E296V/M298Q-FVIIa (enzyme),2.56,2e+08 M⁻¹ s⁻¹,1760 M⁻¹ s⁻¹,
S52A/S60A/S222A/H257A/Q286R/M298Q-FVIIa (enzyme),0.98,2.49e+08 M⁻¹ s⁻¹,116 M⁻¹ s⁻¹,
T128N/P129A/A175S/Q286R/M298Q-FVIIa (enzyme),2.02,,,7.21e+07 M⁻¹ s⁻¹
A122N/G124S/A175S/Q286R-FVIIa (enzyme),2.16,4.11e+07 M⁻¹ s⁻¹,3 M⁻¹ s⁻¹,
H257S-FVIIa (enzyme) ANAFLEELRPGSLERECKEEQCSFEEAREIFKDAERTKLFWISYSDGDQCASSPCQNGGSCKDQLQSYICFCLPAFEGRNCETHKDDQLICVNENGGCEQYCSDHTGTKRSCRCHEGYSLLADGVSCTPTVEYPCGKIPILEKRNASKPQGRIVGGKVCPKGECPWQVLLLVNGAQLCGGTLINTIWVVSAAHCFDKIKNWRNLIAVLGEHDLSEHDGDEQSRRVAQVIIPSTYVPGTTNHDIALLRLHQPVVLTDSVVPLCLPERTFSERTLAFVRFSLVSGWGQLLDRGATALELMVLNVPRLMTQDCLQQSRKVGDSPNITEYMFCAGYSDGSKDSCKGDSGGPHATHYRGTWYLTGIVSWGQGCATVGHFGVYTRVSQYIEWLQKLMRSEPRPGVLLRAPFP,2.64,1.18e+08 M⁻¹ s⁻¹,3.1 M⁻¹ s⁻¹,
Q366V-FVIIa (enzyme) ANAFLEELRPGSLERECKEEQCSFEEAREIFKDAERTKLFWISYSDGDQCASSPCQNGGSCKDQLQSYICFCLPAFEGRNCETHKDDQLICVNENGGCEQYCSDHTGTKRSCRCHEGYSLLADGVSCTPTVEYPCGKIPILEKRNASKPQGRIVGGKVCPKGECPWQVLLLVNGAQLCGGTLINTIWVVSAAHCFDKIKNWRNLIAVLGEHDLSEHDGDEQSRRVAQVIIPSTYVPGTTNHDIALLRLHQPVVLTDHVVPLCLPERTFSERTLAFVRFSLVSGWGQLLDRGATALELMVLNVPRLMTQDCLQQSRKVGDSPNITEYMFCAGYSDGSKDSCKGDSGGPHATHYRGTWYLTGIVSWGVGCATVGHFGVYTRVSQYIEWLQKLMRSEPRPGVLLRAPFP,9.29,5.48e+07 M⁻¹ s⁻¹,4.3 M⁻¹ s⁻¹,
Q286R/H257A-FVIIa (enzyme) ANAFLEELRPGSLERECKEEQCSFEEAREIFKDAERTKLFWISYSDGDQCASSPCQNGGSCKDQLQSYICFCLPAFEGRNCETHKDDQLICVNENGGCEQYCSDHTGTKRSCRCHEGYSLLADGVSCTPTVEYPCGKIPILEKRNASKPQGRIVGGKVCPKGECPWQVLLLVNGAQLCGGTLINTIWVVSAAHCFDKIKNWRNLIAVLGEHDLSEHDGDEQSRRVAQVIIPSTYVPGTTNHDIALLRLHQPVVLTDAVVPLCLPERTFSERTLAFVRFSLVSGWGRLLDRGATALELMVLNVPRLMTQDCLQQSRKVGDSPNITEYMFCAGYSDGSKDSCKGDSGGPHATHYRGTWYLTGIVSWGQGCATVGHFGVYTRVSQYIEWLQKLMRSEPRPGVLLRAPFP,1.96,,4.3 M⁻¹ s⁻¹ and 2.5 M⁻¹ s⁻¹,
